Results: patent US20110097328A1 (MIT, published 2011)

How the values were obtained:
[1] = molecular target: T1, PARP12-GFP fusion protein (UniProt Q9H0J9 1-701); experiment: co-immunoprecipitation: anti-GFP IP from lysate of transfected HeLa S3 cells (0 or 20 nM pateamine A, 30 min), immunoblot with anti-LSM1
T1 construct: Expressed in HeLa S3 cells from pEGFP-C1; not shown: EGFP (green fluorescent protein) encoded by vector pEGFP-C1, located N-terminal (5') to the PARP
T1 sequence (looked up): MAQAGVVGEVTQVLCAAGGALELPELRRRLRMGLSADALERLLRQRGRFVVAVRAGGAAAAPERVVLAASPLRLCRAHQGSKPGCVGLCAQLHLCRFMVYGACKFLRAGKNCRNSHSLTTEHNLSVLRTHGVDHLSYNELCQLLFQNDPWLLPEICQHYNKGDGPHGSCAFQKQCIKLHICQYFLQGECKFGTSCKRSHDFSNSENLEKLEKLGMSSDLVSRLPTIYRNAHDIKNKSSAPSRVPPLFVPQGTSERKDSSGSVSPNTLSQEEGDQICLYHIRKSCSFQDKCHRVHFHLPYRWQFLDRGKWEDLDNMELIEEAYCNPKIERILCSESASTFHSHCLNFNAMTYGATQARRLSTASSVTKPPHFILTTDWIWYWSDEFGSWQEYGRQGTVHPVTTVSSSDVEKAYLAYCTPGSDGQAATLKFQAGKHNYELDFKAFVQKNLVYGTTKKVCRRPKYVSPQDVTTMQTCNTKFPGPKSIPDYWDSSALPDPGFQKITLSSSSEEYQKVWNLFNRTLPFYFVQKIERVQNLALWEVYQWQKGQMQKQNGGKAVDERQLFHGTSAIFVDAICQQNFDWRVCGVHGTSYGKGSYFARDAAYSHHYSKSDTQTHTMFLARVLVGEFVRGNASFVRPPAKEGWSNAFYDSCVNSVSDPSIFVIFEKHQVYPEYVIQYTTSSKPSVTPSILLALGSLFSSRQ
Procedure: (§1) FIG. 25C is a picture of several immunoblots of a 4-12% SDS-PAGE gel containing proteins immunoprecipitated with an anti-GFP antibody from lysate from HeLa S3 cells transfected with a pEGFP-C1 plasmid expressing GFP, PARP5A-GFP, PARP12-GFP, PARP13-GFP, PARP13.1-GFP, or PARP15-GFP following treatment with 0 or 20 nM pateamine A for 30 minutes. The immunoblots were developed using one of the following antibodies: anti-Agog, anti-DDX6, anti-LSM1, anti-PABP, anti-FMRP, anti-eIF1A, anti-eIF2a, anti-eIF3η, anti-eIF4A1, and anti-eIF4E.
(§2) Data from a separate set of experiments indicate that several stress granule-associated proteins bind to the PARP13-GFP, PARP12-GFP, and PARP5A-GFP fusion proteins. In these experiments, HeLa S3 cells were transfected with a pEGFP-C1 plasmid encoding a PARP13-GFP, PARP12-GFP, or PARP5A-GFP fusion protein and treated with 0 or 20 nM pateamine A for 30 minutes. Cell lysates from the cells were immunoprecipitated using an anti-GFP antibody and the immunoprecipitated proteins were electrophoresed using 4-12% SDS-PAGE. The resulting proteins were transferred to a membrane and immunoblotted using commercially-available antibodies specific for different stress granule-associated proteins: Ago2, DDX6, LSM1, PABP, FMRP, eIF1A, eIF2α, eIF3η, eIF4A1, and eIF4E.

[2] = molecular target: T2, PARP5A-GFP fusion protein (UniProt O95271 1-1327); experiment: as above
T2 construct: Expressed in HeLa S3 cells from pEGFP-C1; also called tankyrase 1-GFP; not shown: EGFP (green fluorescent protein) encoded by vector pEGFP-C1, located N-terminal (5') to the PARP
T2 sequence (looked up): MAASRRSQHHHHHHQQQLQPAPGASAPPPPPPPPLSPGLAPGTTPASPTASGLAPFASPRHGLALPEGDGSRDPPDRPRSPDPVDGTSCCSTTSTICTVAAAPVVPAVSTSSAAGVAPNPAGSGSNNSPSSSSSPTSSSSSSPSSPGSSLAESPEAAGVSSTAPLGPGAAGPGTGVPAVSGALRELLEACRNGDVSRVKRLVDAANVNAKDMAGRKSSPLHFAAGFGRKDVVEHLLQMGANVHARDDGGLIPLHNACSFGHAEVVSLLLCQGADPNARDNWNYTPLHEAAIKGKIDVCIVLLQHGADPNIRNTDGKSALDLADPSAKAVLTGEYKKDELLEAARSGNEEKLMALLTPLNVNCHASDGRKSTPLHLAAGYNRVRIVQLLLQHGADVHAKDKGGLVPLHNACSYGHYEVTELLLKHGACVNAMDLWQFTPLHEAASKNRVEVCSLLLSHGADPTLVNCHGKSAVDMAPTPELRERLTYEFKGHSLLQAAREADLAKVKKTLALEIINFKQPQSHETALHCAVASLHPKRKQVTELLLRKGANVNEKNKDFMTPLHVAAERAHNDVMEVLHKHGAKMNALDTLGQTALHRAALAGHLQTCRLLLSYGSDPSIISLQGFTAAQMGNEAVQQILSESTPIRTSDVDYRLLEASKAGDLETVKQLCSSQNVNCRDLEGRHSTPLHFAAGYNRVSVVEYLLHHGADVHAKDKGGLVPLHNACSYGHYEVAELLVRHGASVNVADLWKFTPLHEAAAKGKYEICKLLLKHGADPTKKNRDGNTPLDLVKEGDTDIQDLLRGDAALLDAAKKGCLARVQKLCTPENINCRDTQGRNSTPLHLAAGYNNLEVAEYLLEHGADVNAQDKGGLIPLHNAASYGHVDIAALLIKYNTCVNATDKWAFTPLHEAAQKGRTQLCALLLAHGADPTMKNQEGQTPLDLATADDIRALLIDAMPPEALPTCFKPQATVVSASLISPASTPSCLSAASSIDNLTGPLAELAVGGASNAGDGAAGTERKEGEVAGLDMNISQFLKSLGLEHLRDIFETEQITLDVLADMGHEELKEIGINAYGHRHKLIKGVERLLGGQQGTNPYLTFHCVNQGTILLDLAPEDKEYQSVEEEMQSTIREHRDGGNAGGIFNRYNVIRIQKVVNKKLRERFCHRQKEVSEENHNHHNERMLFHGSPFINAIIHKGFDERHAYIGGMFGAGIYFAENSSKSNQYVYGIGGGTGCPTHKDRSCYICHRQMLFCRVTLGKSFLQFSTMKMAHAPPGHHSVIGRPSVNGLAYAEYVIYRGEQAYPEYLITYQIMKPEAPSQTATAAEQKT
Procedure: as §1, §2

binding result [1]: no binding | binding result [2]: no binding
B1: LSM1 (other, human (HeLa S3 cells), UniProt O15116 1-133, looked up)
single chain: MNYMPGTASLIEDIDKKHLVLLRDGRTLIGFLRSIDQFANLVLHQTVERIHVGKKYGDIPRGIFVVRGENVVLLGEIDLEKESDTPLQQVSIEEILEEQRVEQQTKLEAEKLKVQALKDRGLSIPRADTLDEY
notes: endogenous protein in the cell lysate; member of the group m8
